Consider seven molecules from patent US20120245092A1 (ECOLE NORMALE SUPERIEURE DE LYON, published 2012).

Assay [1] addresses T1, CNA beta C ter-delta 1 (amino acids 378 to 500), two-hybrid prey (human, UniProt P16298 378-500).
T1 construct: also called CnAβCter Δ1
Put plainly: yeast two-hybrid mating assay. As for the experimental part:
(§1) The 5′ end of RH6 (upper case) matches part of the HA epitope tag and the 5′ ends of RH4, RH3 and RH7 (upper case) match the 5′ extremity of the ADH terminator. The PCR reactions was performed using pCMV-SPORT6-CnAβ as a template. […] MB210a was co-transformed with the PCR products and EcoRI/XhoI-cut pJG4-5. The prey plasmids were retrieved from the transformants (21) and the homologous recombination products were checked by sequencing. MB210a was also transformed with positive and negative controls of interaction. […] The yeast two-hybrid mating assays were performed as described (21).

The target in assay [2] is T2, CNA beta C ter-CaM (amino acids 378 to 423), two-hybrid prey (human, UniProt P16298 378-423).
T2 construct: also called CnAβCter CaM
Put plainly: yeast two-hybrid mating assay. On the procedure:
as §1

For assay [3], the target named is T3, CNA beta C ter-delta 2 (amino acids 378 to 456), two-hybrid prey (human, UniProt P16298 378-456).
T3 construct: also called CnAβCter Δ2
Briefly: yeast two-hybrid mating assay. As for the experimental part: as §1

In assay [4] the target is T4, CNA construct CNA11, two-hybrid prey (Mus musculus (Mouse), UniProt P48453 384-495).
T4 construct: not shown: HA-pJG4-5 prey fusion moiety
Briefly: yeast two-hybrid assay (FIG. 14).

Assay [5] has as its target T5, NS5A-TP2 (two-hybrid prey) (human, UniProt Q7Z4H3 1-204).
T5 sequence: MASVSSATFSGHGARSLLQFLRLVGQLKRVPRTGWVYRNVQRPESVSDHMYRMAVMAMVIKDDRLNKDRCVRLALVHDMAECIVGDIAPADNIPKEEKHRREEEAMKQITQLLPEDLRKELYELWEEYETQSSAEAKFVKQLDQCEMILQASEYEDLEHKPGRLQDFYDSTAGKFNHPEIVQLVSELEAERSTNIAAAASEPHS
Put plainly: yeast two-hybrid assay (FIG. 9). The text has this:
(§2) CNA beta and gamma C-Terminal fragments and NS5A-TP2 were cloned in three different vectors (pSH18-34, pJK103 and pRB18-40). These three plasmids differ from each other in the level of sensitivity of their promoter, pSH18-34 having the highest sensitivity and pRB18-40 having the lowest.

Assay [6] addresses T6, CNAβ C-terminal fragment (calcineurin A beta clone selected from the testes cDNA library, two-hybrid prey) (human, UniProt P16298 378-524).
T6 construct: Truncated protein; The truncations made from it start at amino acid 378; also called CNA beta C-terminal fragment
Put plainly: yeast two-hybrid assay (FIG. 9).
Description: as §2

Assay [7] concerns the target T7, CNAγ C-terminal fragment (calcineurin A gamma clone selected from the testes cDNA library, two-hybrid prey) (human, UniProt P48454 365-512).
T7 construct: Truncated protein; also called CNA gamma C-terminal fragment
Put plainly: yeast two-hybrid assay (FIG. 9).
Description: as §2

The target of assay [8] is T8, CNA construct CNA9, two-hybrid prey (Rattus norvegicus (Rat), UniProt P20651 342-419).
T8 construct: not shown: HA-pJG4-5 prey fusion moiety
Briefly: yeast two-hybrid assay, higher sensitivity (FIG. 14).

Assay [9] deals with T9, CNA construct CNA4, two-hybrid prey (Homo sapiens (Human), UniProt P16298 414-524).
T9 construct: not shown: HA-pJG4-5 prey fusion moiety
Described as above.

Assay [10] deals with T4, CNA construct CNA11, two-hybrid prey. The description is as above.
Assay [11] has as its target T10, CNA construct CNA3, two-hybrid prey (Homo sapiens (Human), UniProt P16298 384-524).
T10 construct: not shown: HA-pJG4-5 prey fusion moiety
Described as above.

The target of assay [12] is T5, NS5A-TP2 (two-hybrid prey). The description is as above.
In assay [13] the target is T11, CNA construct CNA10, two-hybrid prey.
T11 construct: not shown: HA-pJG4-5 prey fusion moiety
Described as above.

Assay [14] concerns the target T12, CNA construct CNA7, two-hybrid prey (Homo sapiens (Human), UniProt P16298 1-413).
T12 construct: not shown: HA-pJG4-5 prey fusion moiety
Described as above.

Assay [15] deals with T13, CNA construct CNA8, two-hybrid prey (Homo sapiens (Human), UniProt P16298 1-388).
T13 construct: not shown: HA-pJG4-5 prey fusion moiety
The assay is described as above.

For assay [16], the target named is T6, CNAβ C-terminal fragment (calcineurin A …). Put plainly: yeast two-hybrid mating assay. On the procedure:
as §1

The target of assay [17] is T7, CNAγ C-terminal fragment (calcineurin A …). Briefly: yeast two-hybrid mating assay. On the procedure:
as §1

T7 sequence (P48454 365-512): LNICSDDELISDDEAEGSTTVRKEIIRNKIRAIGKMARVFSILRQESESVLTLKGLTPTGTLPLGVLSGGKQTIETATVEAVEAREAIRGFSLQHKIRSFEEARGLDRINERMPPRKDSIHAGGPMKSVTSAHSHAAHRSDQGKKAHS

B1: LexA-R5G42 fusion protein (peptide aptamer R5G42 as two-hybrid bait) (designed binder, not shown: large carriers)
chain: MVKQIESKTAFQEALDAAGDKLVVVDFSATWCGPSAVTFAVCALGPCKMIKPFFHSLSEKYSNVIFLEVDVDDCQDVASECEVKCMPTFQFFKKGQKVGEFSGANKEKLEATINELV
notes: also called LexA-R5G42 bait protein
For the molecule B1, the binding result in assay [1] is recorded as “binds”; in assay [2], “no binding”; in assay [3] it was “no binding”; in assay [4] it was “binds”.

B2: R5G42 mutant C2 (LexA fusion, two-hybrid bait) (designed binder)
chain: MVKQIESKTAFQEALDAAGDKLVVVDFSATWCGPSAVTFAVCALGPCKMIKLFFHSLSEKYSNVIFLEVDVDDCQDVASECEVKCMPTFQFFKKGQKVGEFSGANKEKLEATINELV
notes: One amino acid change against R5G42; also called R5G42-C2; not shown: LexA fusion partner (pGILDA bait)
Take B2: the binding result in assay [5] is “no binding”; in [4], “binds”.

B3: R5G42 mutant N9 (LexA fusion, two-hybrid bait) (designed binder)
chain: MVKQIESKTAFQEALDAAGDKLVVVDFSAAWCGPSAVTFAVCALGPCKMIKPFFHSLSEKYSNVIFLEVDVDDCQDVASECEVKCMPTFQFFKKGQKVGEFSGANKEKLEATINELV
notes: One amino acid change against R5G42; also called R5G42-N9; not shown: LexA fusion partner (pGILDA bait)
Consider B3, for which the binding result was “no binding” in assay [6], “no binding” in assay [7] and “binds” in assay [4].

B4: LexA-R5G52 fusion protein (peptide aptamer R5G52 as two-hybrid bait) (designed binder)
chain: MVKQIESKTAFQEALDAAGDKLVVVDFSATWCGPIQSPPESPTGGPCKMIKPFFHSLSEKYSNVIFLEVDVDDCQDVASECEVKCMPTFQFFKKGQKVGEFSGANKEKLEATINELV
notes: also called LexA-R5G52 bait protein; not shown: LexA (E. coli), fusion partner from pGILDA
Take B4: the binding result in assay [8], in assay [9], in assay [10], in assay [11], in assay [12] and in [13] was “no binding” throughout. The binding result in [14] and in [15] was “no binding” in each case.

B5: R5G42 mutant C7 (LexA fusion, two-hybrid bait) (designed binder)
chain: MVKQIESKTAFQEALDAAGDKPVVVDFSATWCGPSAVTFAVCALGPCKMIKPFFHSLSEKYSNVIFLEVDVDDCQDVASECEVKCMPTFQFFKKGQKVGEFSGANKEKLEATINELV
notes: One amino acid change against R5G42; also called R5G42-C7; not shown: LexA fusion partner (pGILDA bait)
B5: the binding result is on record as “no binding” in assay [5] and “binds” in [4].

B6: R5G42 mutant C8 (LexA fusion, two-hybrid bait) (designed binder)
chain: MVKQIESKTAFQEALDAAGDKLVVVDFSATWCGPSAVTIAVCALGPCKMIKPFFHSLSEKYSNVIFLEVDVDDCQDVASECEVKCMPTFQFFKKGQKVGEFSGANKEKLEATINELV
notes: One amino acid change against R5G42; also called R5G42-C8; not shown: LexA fusion partner (pGILDA bait)
On to B6, for which the binding result is listed as “no binding” in assay [5] and “binds” in assay [4].

B7: LexA-R7G44 fusion protein (peptide aptamer R7G44 as two-hybrid bait) (designed binder)
chain: MVKQIESKTAFQEALDAAGDKLVVVDFSATWCGPHQSTIGVAEFGPCKMIKPFFHSLSEKYSNVIFLEVDVDDCQDVASECEVKCMPTFQFFKKGQKVGEFSGANKEKLEATINELV
notes: Control aptamer; not shown: LexA (E. coli), fusion partner from pGILDA
Take B7: the binding result in assay [16] and in assay [17] was “no binding” each time.
